Publication PMC7401919
Read-outs that look alike come from different tables or passages of the source.

Legend:
[1] = molecular target: lysyl oxidase (rat (endogenous in RRECs)) (UniProt P16636); assay: co-IP
[2] = molecular target: lysyl oxidase (rat (endogenous in RRECs)) (UniProt P16636); assay: co-IP; remark: listed apart in the source

UniProt P16636, sequence (P16636 22-411): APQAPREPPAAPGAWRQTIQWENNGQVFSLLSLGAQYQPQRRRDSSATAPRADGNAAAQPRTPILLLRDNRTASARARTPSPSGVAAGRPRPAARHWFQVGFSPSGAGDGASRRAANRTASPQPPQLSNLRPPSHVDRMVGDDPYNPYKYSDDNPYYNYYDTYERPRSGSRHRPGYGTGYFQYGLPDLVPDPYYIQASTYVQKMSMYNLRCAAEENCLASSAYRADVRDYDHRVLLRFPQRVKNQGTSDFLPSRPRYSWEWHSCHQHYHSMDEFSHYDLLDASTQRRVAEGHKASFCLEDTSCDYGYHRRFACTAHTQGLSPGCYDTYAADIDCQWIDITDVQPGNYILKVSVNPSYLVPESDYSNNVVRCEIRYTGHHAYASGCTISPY

LOX bound to Coll IV in HG medium, % of normal-glucose control [1] | LOX bound to Coll IV in HG medium, % of normal-glucose control [2] | LOX bound to FN in HG medium, % of normal-glucose control [1] | LOX bound to FN in HG medium, % of normal-glucose control [2] | Substance
144 % of control | 138 % of control |  |  | collagen IV (natural protein)
 |  | 168 % of control | 156 % of control | fibronectin (from UniProt P04937 25-2477) (natural protein)
